“Also recorded” adds a separate entry of the source. Where a SMILES comes first, the peptide text is derived from it. The star is where a group is joined. Cbz = O=C(OCc1ccccc1)* Where only a bound is given, the exact number is not on record here.

For series [1], the target named is T1, GFP-TDP43CTF (Homo sapiens, UniProt Q13148).
T1 construct: expressed in transfected cells; host or cells: HEK293
As to the kind of experiment: Fluorescence microscopy of GFP-TDP43CTF aggregation (GFP foci) in transfected HEK293 cells. Conditions: for aggregation of GFP-TDP43CTF reporter in cells (in words): HEK293 cells, vs reporter alone; for reduction of TDP-43 aggregation: GFP-TDP43CTF reporter, vs reporter alone (FIG. 8/9, Table 12). It is filed as cell-based. The method, then:
(§1) Expression vector plasmids encoding various protein constructs were transfected into HEK293 cells with Lipofectamine 3000 transfection reagent (Thermo Fisher Scientific). Cell lysates were analyzed for expressed proteins using immunoblot assays. Samples of culture media were centrifuged to remove debris prior to analysis. Cells were lysed in a lysis buffer (10 mM Tris-HCl, pH 8.0, 150 mM NaCl, 10 mM EDTA, 2% SDS) containing 2 mM PMSF and protease cocktail (Complete Protease Inhibitor Cocktail; Sigma). After brief sonication, the samples were analyzed for expressed proteins using immunoblot assays. For immunoblot analysis, samples were boiled in an SDS-sample buffer and run on polyacrylamide electrophoresis. Thereafter, the separated protein bands were transferred to a PVDF membrane.
In some instances, aggregation of TDP-43 (full-length of C-terminal fragment) GFP reporter constructs (described below) were detected in vivo using fluorescence microscopy. Cultured cells expressing the reporter constructs as well as the fusion protein comprising the J domain and TDP-43-binding domain were washed with PBS and fixed with 4% paraformaldehyde in PBS for 5 minutes. After three 5-min washes with PBS, nuclear DNA was stained with DAPI. Percentage of cells containing TDP-43 (GFP foci) in transfected cells was counted.
We first investigated whether the fusion molecule of the present invention targeting TDP-43 ameliorates its aggregation in cultured cells. To this end, we generated GFP-based reporter constructs GFP-TDP43 and GFP-TDP43, wherein GFP was fused at its C-terminus to either the full-length human TDP-43 protein or the C-terminal fragment TDP-43 which is known to form cytoplasmic aggregation and cytotoxicity (See Table 8 below). HEK293 cells were cultured and transfected with the plasmids encoding the full-length TDP43 or the C-terminal fragment of TDP43, containing the C-terminal 207 amino acids TDP-43 (amino acids 208-414 of human TDP-43) as a GFP fusion [GFP-TDP43FL (SEQ ID NO: 101) or GFP-TDP43CTF (SEQ ID NO: 102)].

Series [2] concerns the target T2, GFP-TDP43FL (Homo sapiens, UniProt Q13148).
T2 construct: expressed in transfected cells; host or cells: HEK293
In words: Immunoblot (anti-GFP) of reporter level in cell extracts. The format is cell-based. Conditions: cell extracts (FIG. 5). The method, then: as §1
(§2) Expressed proteins were detected using a chemiluminescent signal. Briefly, blots were reacted with a primary antibody capable of binding the particular epitope (e.g., GFP). After rinsing away the unreacted primary antibody, a secondary, enzyme-linked antibody (e.g., HRP-linked anti-lgG antibody) was allowed to react with the primary antibody molecules bound to the blots. Following rinsing, a chemiluminescent reagent was added, and the resultant chemiluminescent signals in the blots were captured on X-ray film.
For orientation: A western blot detects proteins with antibodies after separation by electrophoresis.

For series [3], the target named is T2, GFP-TDP43FL. As to the kind of experiment: Fluorescence microscopy of GFP-TDP43FL aggregation (GFP foci) in transfected HEK293 cells. It is filed as cell-based. Conditions: vs negative controls and construct 2 (FIG. 7). The method, then:
as §1
In some instances, aggregation of TDP-43 (full-length of C-terminal fragment) GFP reporter constructs (described below) were detected in vivo using fluorescence microscopy. Cultured cells expressing the reporter constructs as well as the fusion protein comprising the J domain and TDP-43-binding domain were washed with PBS and fixed with 4% paraformaldehyde in PBS for 5 minutes. After three 5-min washes with PBS, nuclear DNA was stained with DAPI. Percentage of cells containing TDP-43 (GFP foci) in transfected cells was counted. […]

Series [4] relates to GFP-TDP43CTF. In words: Bafilomycin A1 or MG132 treatment of cells co-expressing reporter and Construct 3, immunoblot. The format is cell-based, human. Conditions: immunoblot (FIG. 10). The text has this:
Cells were transfected either with the reporter construct GFP-TDP43FL (lane 2) or GFP-TDP43CTF (lanes 3-8), and co-transfected with nucleic acids encoding Construct 3 (lanes 4-8).
We next investigated the mechanism of the fusion protein in reducing aggregation. HEK293 cells were transfected with the GFP-TDP43FL or GFP-TDP43CTF reporter construct, either alone or with Construct 3 (JB1-scFv (3B12A)), as well as with BFA (Bafilomycin A1, an inhibitor of the late phase of autophagy) or MG132 (proteasome inhibitor).

In series [5] the target is T1, GFP-TDP43CTF. As to the kind of experiment: Immunoblot (anti-GFP) of reporter level in cell extracts. The format is cell-based. Conditions: vs negative control. The method, then: as §1, §2
In series [6] the target is T3, human TDP-43ΔNLS (Homo sapiens, UniProt Q13148, K82A/K84A/R83A).
T3 construct: expressed in transfected cells; host or cells: transgene in NEFH-tTA x hTDP-43ΔNLS bigenic mice (rNLS mice), in vivo
As to the kind of experiment: Efficacy in rNLS8 (NEFH-tTA x hTDP-43ΔNLS) mouse model of ALS, ICV AAV rh10. The format is in vivo. Conditions: rNLS8 mice (Dox −). The method, then: Vectors prepared above were tested on TDP-43-asociated pathologies of a novel AAV NEFH-tTA×hTDP-43ΔNLS bigenic mice (rNLS mice). This model has a doxycycline (DOX)-repressible construct expressing pathogenic TDP-43 (human TDP-43ΔNLS). Upon removal of DOX, TDP-43ΔNLS expression causes a rapid and progressive deterioration of the animals, causing severe weight loss and, generally within 6-8 weeks, death. We tested the efficacy of Construct 3 (JB1-scFv (3B12A), SEQ ID NO: 80) in slowing the progression of TDP-43ΔNLS-mediated pathology. AAV rh10 containing control or Construct 3 were administered ICV unilaterally at P1/P2 at a volume of 2 ul (maximum 4 ul) in different groups as shown below in Table 17. Except for the control group 1, DOX removal occurred at week 5. Control mice in group
Body weight was measured twice weekly after weaning. After completion of testing, samples were collected from all surviving mice. Whole brains were collected and split into 2 hemispheres. One hemisphere were weighed and frozen on dry ice. The second hemisphere were post fixed in 4% PFA for histology assessments.

The format of series [7] is in vivo, mouse. To be noted: C57BL/6J mice, AAV rh10 vector encoding Construct 3 vs control, three weeks after ICV or IT injection; data not shown.
Series [8] has as its target T1, GFP-TDP43CTF. In words: Fractionation assay: soluble and insoluble fractions, immunoblot. It is filed as cell-based. To be noted: GFP-TDP43CTF reporter, HEK293 cells. The method, then: Transfected HEK293 cells are homogenized in RIPA buffer (50 mM Tris, pH7.5, 150 mM NaCl, 0.1% NP-40, 0.5% sodium deoxycholate, 0.1% SDS) supplemented with protease inhibitor cocktail, 2 mM PMSF, 10 mM NaF, and 2 mM Na3VO4. After brief sonication, protein concentration is measured by BCA assay kit (Pierce). The equal protein amount is spun down by centrifugation at 16,000×g for 30 minutes at 4° C. to fractionate into soluble fraction (supernatant) and insoluble fraction (pellet). The insoluble fraction is further solubilized in SDS lysis buffer (10 mM Tris, pH8.0, 150 mM NaCl, 2% SDS). Both soluble and insoluble fractions were applied to SDS-PAGE under reducing condition, followed by immunoblotting assay with anti-GFP antibody.

For “Construct 4: Same as construct 3, with a P33Q mutation in the conserved HPD motif”, in series [1], the “aggregation of GFP-TDP43CTF reporter in cells (in words)” value (shortened to “aggregation of GFP-TDP43CTF reporter”) is given as “did not reduce aggregation”. The “levels of the full-length reporter construct (GFP-TDP43FL), anti-GFP immunoblot (in words)” value in series [2] is listed as “No differences”.

Consider “Construct 5: Reversed arrangement of J domain and TDP-43 from Construct 3”, for which the “aggregation of GFP-TDP43CTF reporter” value in series [1] is given as “dramatically reduced”. Further, the “aggregation level in cells expressing GFP-TDP43FL reporter (in words)” value in series [3] is recorded as “modest reduction”.

Take `CO/C1=C\C(C)=C\[C@@H](C)[C@@H](O)[C@@H](C)C/C(C)=C/C=C/[C@H](OC)[C@@H]([C@@H](C)[C@@H](O)[C@H](C)[C@@]2(O)C[C@@H](O)[C@H](C)[C@@H](C(C)C)O2)OC1=O` [BFA, Bafilomycin A1]: the “level of GFP-TDP43CTF reporter in cells co-expressing Construct 3 after BFA treatment” value in series [4] (BFA 0.01 μM (10 nM) or 0.1 μM (100 nM)) is listed as “higher levels; also recorded: reappearance of pathogenic TDP43 in a dose dependent manner”.

As to “Construct 3: DnaJB1 J domain fused to scFv(3B12A)”, in series [1], the “reduction of TDP-43 aggregation” value is over 90%. Moreover, the entries for the “aggregation of GFP-TDP43CTF reporter” value in series [1] and in series [1] (listed as construct 3) were “substantially reduced aggregation” and “dramatically reduced”, respectively. Besides, the entries for the “amount of GFP-TDP43CTF reporter protein, anti-GFP immunoblot (in words)” value (from here on “amount of GFP-TDP43CTF reporter protein”) in series [5] and in series [5] (listed as construct 3) were “lower levels” and “marked reduction”, respectively. For the same compound, in series [2], the “levels of the full-length reporter construct (GFP-TDP43FL), anti-GFP immunoblot (in words)” value is given as “No differences”. Further, the “survival at week 10” value in series [6] (AAV rh10 6 × 10^10 vg ICV at P1, DOX removal at week 5 (FIG. 16C)) is listed as 100%. Further, in series [6] (males, AAV rh10 6 × 10^10 vg ICV at P1, DOX removal at week 5 (FIG. 16B)), the “body weight compared with Group 2 (AAV control, DOX off)” value was “statistically significant weight increase”. For the same compound, the “aggregation level in cells expressing GFP-TDP43FL reporter (in words)” value in series [3] was “modest reduction”. Moreover, the body weight result in series [7] was “No difference in body weight”.

Take `CC(C)C[C@@H](C=O)NC(=O)[C@H](CC(C)C)NC(=O)[C@H](CC(C)C)NC(=O)OCc1ccccc1` [MG132] (Cbz-Leu-Leu-Leu-aldehyde): in series [4] (MG132 0.1 μM or 1.0 μM), the “level of GFP-TDP43CTF reporter in cells co-expressing Construct 3 after MG132 treatment” value is listed as “little to no effect”.

On to “Construct 14: J domain from DnaJB1 fused to two tandem copies of QBP1”, for which, in series [1], the “reduction of TDP-43 aggregation” value is about 71%. For the same compound, the “amount of GFP-TDP43CTF reporter protein” value in series [5] was “lower levels”.

Turning to “Construct 20: Construct 3 containing the dimerization domain from human DnaJA1”, the “ability to reduce aggregation of GFP-TDP43CTF (in words, with Table 15)” value in series [8] is recorded as “potent reduction”.

Turning to “Construct 9: Full-length J protein control [reference compound]”, in series [1], the “reduction of TDP-43 aggregation” value was about 43%. The “amount of GFP-TDP43CTF reporter protein” value in series [5] is reported as “lower levels”.

The record behind these values is patent publication US20240327477A1, “COMPOSITIONS AND METHODS FOR THE TREATMENT OF TDP-43 PROTEINOPATHIES” (SOLA BIOSCIENCES LLC, priority 2020, published 2024).
